Data reported in US20100120171A1.

Legend:
[1] = target: Standard VE-cadherin (standard solutions run with the Bender MedSystems BMS253 kit) (UniProt P33151); assay: Bender BMS253 ELISA kit; standard VE-cadherin at 2.5 ng/mL; first replicate
[2] = target: Standard VE-cadherin (standard solutions run with the Bender MedSystems BMS253 kit) (UniProt P33151); assay: Bender BMS253 ELISA kit; standard VE-cadherin at 0.63 ng/mL; second replicate
[3] = target: Standard VE-cadherin (standard solutions run with the Bender MedSystems BMS253 kit) (UniProt P33151); assay: Bender BMS253 ELISA kit; standard VE-cadherin at 5 ng/mL; first replicate
[4] = target: Standard VE-cadherin (standard solutions run with the Bender MedSystems BMS253 kit) (UniProt P33151); assay: Bender BMS253 ELISA kit; standard VE-cadherin at 10 ng/mL
[5] = target: Standard VE-cadherin (standard solutions run with the Bender MedSystems BMS253 kit) (UniProt P33151); assay: Bender BMS253 ELISA kit; standard VE-cadherin at 1.25 ng/mL
[6] = target: Standard VE-cadherin (standard solutions run with the Bender MedSystems BMS253 kit) (UniProt P33151); assay: Bender BMS253 ELISA kit; standard VE-cadherin at 2.5 ng/mL
[7] = target: Standard VE-cadherin (standard solutions run with the Bender MedSystems BMS253 kit) (UniProt P33151); assay: Bender BMS253 ELISA kit; standard VE-cadherin at 1.25 ng/mL; second replicate
[8] = target: Standard VE-cadherin (standard solutions run with the Bender MedSystems BMS253 kit) (UniProt P33151); assay: Bender BMS253 ELISA kit; standard VE-cadherin at 2.5 ng/mL; OD minus OD at 0 ng/mL
[9] = target: Standard VE-cadherin (standard solutions run with the Bender MedSystems BMS253 kit) (UniProt P33151); assay: Bender BMS253 ELISA kit; standard VE-cadherin at 5 ng/mL
[10] = target: Standard VE-cadherin (standard solutions run with the Bender MedSystems BMS253 kit) (UniProt P33151); assay: Bender BMS253 ELISA kit; standard VE-cadherin at 10 ng/mL; first replicate
[11] = target: Standard VE-cadherin (standard solutions run with the Bender MedSystems BMS253 kit) (UniProt P33151); assay: Bender BMS253 ELISA kit; standard VE-cadherin at 1.25 ng/mL; OD minus OD at 0 ng/mL
[12] = target: Standard VE-cadherin (standard solutions run with the Bender MedSystems BMS253 kit) (UniProt P33151); assay: Bender BMS253 ELISA kit; standard VE-cadherin at 5 ng/mL; OD minus OD at 0 ng/mL
[13] = target: Standard VE-cadherin (standard solutions run with the Bender MedSystems BMS253 kit) (UniProt P33151); assay: Bender BMS253 ELISA kit; standard VE-cadherin at 5 ng/mL; second replicate
[14] = target: Standard VE-cadherin (standard solutions run with the Bender MedSystems BMS253 kit) (UniProt P33151); assay: Bender BMS253 ELISA kit; standard VE-cadherin at 1.25 ng/mL; first replicate
[15] = target: Standard VE-cadherin (standard solutions run with the Bender MedSystems BMS253 kit) (UniProt P33151); assay: Bender BMS253 ELISA kit; standard VE-cadherin at 0.63 ng/mL; OD minus OD at 0 ng/mL
[16] = target: Standard VE-cadherin (standard solutions run with the Bender MedSystems BMS253 kit) (UniProt P33151); assay: Bender BMS253 ELISA kit; standard VE-cadherin at 0.32 ng/mL
[17] = target: Standard VE-cadherin (standard solutions run with the Bender MedSystems BMS253 kit) (UniProt P33151); assay: Bender BMS253 ELISA kit; standard VE-cadherin at 0.63 ng/mL
[18] = target: Standard VE-cadherin (standard solutions run with the Bender MedSystems BMS253 kit) (UniProt P33151); assay: Bender BMS253 ELISA kit; standard VE-cadherin at 2.5 ng/mL; second replicate
[19] = target: Standard VE-cadherin (standard solutions run with the Bender MedSystems BMS253 kit) (UniProt P33151); assay: Bender BMS253 ELISA kit; standard VE-cadherin at 0.16 ng/mL; second replicate
[20] = target: Standard VE-cadherin (standard solutions run with the Bender MedSystems BMS253 kit) (UniProt P33151); assay: Bender BMS253 ELISA kit; standard VE-cadherin at 0.63 ng/mL; first replicate
[21] = target: Standard VE-cadherin (standard solutions run with the Bender MedSystems BMS253 kit) (UniProt P33151); assay: Bender BMS253 ELISA kit; standard VE-cadherin at 0.32 ng/mL; second replicate
[22] = target: Standard VE-cadherin (standard solutions run with the Bender MedSystems BMS253 kit) (UniProt P33151); assay: Bender BMS253 ELISA kit; standard VE-cadherin at 0.16 ng/mL; OD minus OD at 0 ng/mL
[23] = target: Standard VE-cadherin (standard solutions run with the Bender MedSystems BMS253 kit) (UniProt P33151); assay: Bender BMS253 ELISA kit; standard VE-cadherin at 0.16 ng/mL
[24] = target: Standard VE-cadherin (standard solutions run with the Bender MedSystems BMS253 kit) (UniProt P33151); assay: Bender BMS253 ELISA kit; standard VE-cadherin at 0.16 ng/mL; first replicate
[25] = target: Standard VE-cadherin (standard solutions run with the Bender MedSystems BMS253 kit) (UniProt P33151); assay: Bender BMS253 ELISA kit; standard VE-cadherin at 0.32 ng/mL; first replicate
[26] = target: Standard VE-cadherin (standard solutions run with the Bender MedSystems BMS253 kit) (UniProt P33151); assay: Bender BMS253 ELISA kit; standard VE-cadherin at 10 ng/mL; OD minus OD at 0 ng/mL
[27] = target: Standard VE-cadherin (standard solutions run with the Bender MedSystems BMS253 kit) (UniProt P33151); assay: Bender BMS253 ELISA kit; standard VE-cadherin at 0.32 ng/mL; OD minus OD at 0 ng/mL
[28] = target: Standard VE-cadherin (standard solutions run with the Bender MedSystems BMS253 kit) (UniProt P33151); assay: Bender BMS253 ELISA kit; standard VE-cadherin at 10 ng/mL; second replicate

UniProt P33151, sequence (P33151 48-593 limits assumed): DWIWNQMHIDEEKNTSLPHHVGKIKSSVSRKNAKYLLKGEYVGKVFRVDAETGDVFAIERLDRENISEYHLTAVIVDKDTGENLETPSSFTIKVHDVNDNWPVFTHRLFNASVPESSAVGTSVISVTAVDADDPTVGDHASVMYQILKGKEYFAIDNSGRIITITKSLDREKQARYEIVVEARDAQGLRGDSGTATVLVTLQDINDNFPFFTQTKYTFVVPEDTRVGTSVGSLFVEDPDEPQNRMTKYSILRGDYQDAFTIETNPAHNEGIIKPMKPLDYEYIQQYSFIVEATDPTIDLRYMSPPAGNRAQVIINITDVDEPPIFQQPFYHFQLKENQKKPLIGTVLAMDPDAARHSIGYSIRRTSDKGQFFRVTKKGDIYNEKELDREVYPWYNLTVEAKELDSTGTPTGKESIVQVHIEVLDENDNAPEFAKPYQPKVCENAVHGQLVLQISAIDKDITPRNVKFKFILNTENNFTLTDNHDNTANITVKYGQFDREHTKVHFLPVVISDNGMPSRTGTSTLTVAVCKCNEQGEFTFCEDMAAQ

Q: With “mAb provided in the human soluble VE-cadherin ELISA kit (Bender MedSystems, reference BMS253) (antibody)” as the substance, how does the OD [1] read?
A: 0.61 OD

Q: What about the OD [2] of the same substance?
A: 0.222 OD

Q: And the OD [3]?
A: 1.29 OD

Q: What about the mean OD [4] of the same substance?
A: 2.63 OD

Q: And the mean OD [5]?
A: 0.413 OD

Q: What about the mean OD [6] of the same substance?
A: 0.616 OD

Q: And the OD [7]?
A: 0.454 OD

Q: What about the corr. mean (OD) [8] of the same substance?
A: 0.508 OD

Q: What about the mean OD [9] of the same substance?
A: 1.17 OD

Q: What about the OD [10] of the same substance?
A: 2.41 OD

Q: What about the corr. mean (OD) [11] of the same substance?
A: 0.305 OD

Q: And the corr. mean (OD) [12]?
A: 1.06 OD

Q: And the OD [13]?
A: 1.05 OD

Q: What about the OD [14] of the same substance?
A: 0.371 OD

Q: And the corr. mean (OD) [15]?
A: 0.136 OD

Q: And the mean OD [16]?
A: 0.22 OD

Q: What about the mean OD [17] of the same substance?
A: 0.244 OD

Q: And the OD [18]?
A: 0.621 OD

Q: And the OD [19]?
A: 0.162 OD

Q: What about the OD [20] of the same substance?
A: 0.265 OD

Q: What about the OD [21] of the same substance?
A: 0.181 OD

Q: And the corr. mean (OD) [22]?
A: 0.046 OD

Q: And the mean OD [23]?
A: 0.154 OD

Q: What about the OD [24] of the same substance?
A: 0.145 OD

Q: What about the OD [25] of the same substance?
A: 0.258 OD

Q: And the corr. mean (OD) [26]?
A: 2.52 OD

Q: And the corr. mean (OD) [27]?
A: 0.112 OD

Q: And the OD [28]?
A: 2.85 OD
